Patent US20110008345A1 (GlaxoSmithKline, published 2011)

Columns and labels:
[1] = target: T1, recombinant E. coli-expressed human IL-13 (human, UniProt P35225 35-146); test: SPR
T1 construct: made and purified at GSK; also called Interleukin-13; rhIL-13

[2] = target: T2, recombinant E. coli-expressed human IL-4 (human, UniProt P05112 25-153); test: ELISA, IL-4 binding to IL4Ralpha-Fc
T2 construct: made and purified at GSK; also called Interleukin-4; rhIL-4
T2 sequence: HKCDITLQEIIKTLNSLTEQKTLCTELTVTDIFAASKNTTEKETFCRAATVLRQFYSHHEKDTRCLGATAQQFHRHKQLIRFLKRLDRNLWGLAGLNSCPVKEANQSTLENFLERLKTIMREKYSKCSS

[3] = target: T2, recombinant E. coli-expressed human IL-4; test: ELISA
[4] = target: T1, recombinant E. coli-expressed human …; test: SPR; remark: listed apart in the source
recombinant human VEGF = target: T3, recombinant human VEGF (human, UniProt P15692-4 27-191); test: ELISA
T3 construct: also called VEGF165; hVEGF165

[5] = target: T1, recombinant E. coli-expressed human …; test: SPR, purified
[6] = target: T2, recombinant E. coli-expressed human IL-4; test: SPR, purified
[7] = target: T1, recombinant E. coli-expressed human …; test: SPR stoichiometry
[8] = target: T2, recombinant E. coli-expressed human IL-4; test: SPR stoichiometry

B1: 586H-210 (bispecific antibody, human IgG1, kappa)
heavy: not shown
light: DIVMTQSPLSLPVTPGEPASISCRSSQNIVHINGNTYLEWYLQKPGQSPRLLIYKISDRFSGVPDRFSGSGSGTDFTLKISRVEADDVGIYYCFQGSHVPWTFGQGTKLEIKRTVAAPSVFIFPPSDEQLKSGTASVVCLLNNFYPREAKVQWKVDNALQSGNSQESVTEQDSKDSTYSLSSTLTLSKADYEKHKVYACEVTHQGLSSPVTKSFNRGEC
Work on B1 yielded a Kd [1] of 440 pM and an IC50 [2] of 26800 pM.

B2: 586H-EPKSC-210 (bispecific antibody, human IgG1, kappa)
heavy: not shown
light: B1 light
With B2 the binding result [3] was “binds” and the Kd [1] was 430 pM.

B3: 586H-G4S-210 (bispecific antibody, human IgG1, kappa)
heavy: not shown
light: B1 light
Binder B3 has a Kd [1] of 420 pM and an IC50 [2] of 29800 pM.

B4: 586H-ELQLE-210 (bispecific antibody, human IgG1, kappa)
heavy: not shown
light: B1 light
In the case of B4, the binding result [3] is reported as “binds” and the Kd [1] is reported as 430 pM.

B5: 586H-ASTKG-210 (bispecific antibody, human IgG1, kappa)
heavy: not shown
light: B1 light
B5 showed a Kd [1] of 400 pM and an IC50 [2] of 27300 pM.

B6: anti-CD20 mAb (antibody, human IgG1, kappa, V domains shown)
VH: QVQLQQPGAELVKPGASVKMSCKASGYTFTSYNMHWVKQTPGRGLEWIGAIYPGNGDTSYNQKFKGKATLTADKSSSTAYMQLSSLTSEDSAVYYCARSTYYGGDWYFNVWGAGTLVTVSS
VL: QIVLSQSPAILSASPGEKVTMTCRASSSVSYIHWFQQKPGSSPKPWIYATSNLASGVPVRFSGSGSGTSYSLTISRVEAEDAATYYCQQWTSNPPTFGGGTKLEIKR
notes: also called Rituxan; anti-CD20 control antibody
B6: no binding [4].

B7: BPC1803 (bispecific antibody, human IgG1, kappa)
heavy: not shown
light: DIVMTQSPLSLPVTPGEPASISCRSSQSIVQSNGDTYLEWYLQKPGQSPQLLIYRVSNRFSGVPDRFSGSGSGTDFTLKISRVEAEDVGVYYCFQGSHVPYTFGQGTKLEIKRTVAAPSVFIFPPSDEQLKSGTASVVCLLNNFYPREAKVQWKVDNALQSGNSQESVTEQDSKDSTYSLSSTLTLSKADYEKHKVYACEVTHQGLSSPVTKSFNRGEC
notes: anti-VEGF tear lipocalin fusion; also called antiIGF1R Heavy Chain-GS-TLPC
B7: binds (recombinant human VEGF).

B8: BPC1804 (bispecific antibody, human IgG1, kappa)
heavy: not shown
light: B7 light
notes: anti-VEGF tear lipocalin fusion
B8: binds (recombinant human VEGF).

B9: PascoHL-G4S-474 (bispecific antibody, human IgG1, kappa)
heavy: not shown
light: DIVLTQSPSSLSASVGDRVTITCKASQSVDYDGDSYMNWYQQKPGKAPKLLIYAASNLESGIPSRFSGSGSGTDFTFTISSLQPEDIATYYCQQSNEDPPTFGQGTKVEIKRTVAAPSVFIFPPSDEQLKSGTASVVCLLNNFYPREAKVQWKVDNALQSGNSQESVTEQDSKDSTYSLSSTLTLSKADYEKHKVYACEVTHQGLSSPVTKSFNRGECGGGGSGVQLLESGGGLVQPGGSLRLSCAASGFTFAWYDMGWVRQAPGKGLEWVSSIDWHGEVTYYADSVKGRFTISRDNSKNTLYLQMNSLRAEDTAVYYCATAEDEPGYDYWGQGTLVTVSS
Binder B9 has a Kd [5] of 870 pM, a Kd [6] of 35 pM and a Stoichiometry [7] of 3.5. For the same binder, the Stoichiometry [8] was 1.7.
